Measured values taken from the supplement of paper PMC10126150.
± gives the standard deviation of the averaged measurements.

Test system: ATP
Experiment: switch fluorescence ratio, 500 uM ATP over buffer (Cy3 cluster intensity, sum of 5 cycles each) (fold (ratio)); higher = stronger signal-on switching upon ATP binding; sequences stand for … in TCGTCGGCAGCGTCAGATGTGTATAAGAGACAGTTTTTTTTTTTTTTTTTTTTTTTTT…TC
Conditions: aptamer strand: ATP DNA aptamer (quencher-CACCTGGGGGAGTATTGCGGAGGAAGG + anchor), 100 nM annealed; ATP concentration: 500 uM
Outline: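 Imaging in selection buffer was followed by imaging after 15 min with 500 uM ATP at 22 °C, for Cy3-labelled switching-strand clusters annealed to 100 nM quencher-labelled ATP aptamer on a modified Illumina MiSeq flow-cell. Five of these buffer/ATP cycles ran, separated by NaOH stripping and re-annealing. The fluorescence ratio per cluster is summed target-cycle over summed buffer-cycle Cy3 intensity, averaged per switch-domain sequence; clusters outside 100-1000 RFU were removed.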
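Note: ATP exposure 15 min at 22 °C before imaging.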

| Sequence | switch fluorescence ratio |
| --- | --- |
| TGGCGGTAGT | 1.06 ± 0.056 |
| TGGCGTTGGG | 1.02 ± 0.046 |
| TGGCTCCCGC | 1.089 ± 0.0041 |
| TGGCTCGAGC | 1.01 ± 0.017 |
| TGGCTCGGCT | 1.03 ± 0.051 |
| TGGCTGAGAA | 0.9723 ± 0.0028 |
| TGGCTGATTT | 1.003 ± 0.0053 |
| TGGCTGCTGG | 0.949 ± 0.013 |
| TGGCTGGAAC | 0.981 ± 0.021 |
| TGGCTGGGCT | 1.03 ± 0.05 |
| TGGCTTGGGG | 1.03 ± 0.051 |
| TGGGAAAGCC | 0.981 ± 0.012 |
| TGGGAAAGCG | 1 ± 0.024 |
| TGGGAACCAA | 1.02 ± 0.022 |
| TGGGAAGGTT | 1.02 ± 0.041 |
| TGGGAATACG | 1.11 ± 0.048 |
| TGGGAATGCC | 0.994 ± 0.025 |
| TGGGAATGGT | 1.01 ± 0.048 |
| TGGGACGCCT | 1.06 ± 0.14 |
| TGGGACGGGT | 0.968 ± 0.052 |
| TGGGACGGTC | 1.1 ± 0.051 |
| TGGGACTGGG | 1.01 ± 0.06 |
| TGGGAGAAGT | 0.983 ± 0.011 |
| TGGGAGCAGG | 1.05 ± 0.079 |
| TGGGAGGG | 1.04 ± 0.013 |

| Sequence | switch fluorescence ratio |
| --- | --- |
| TGGGAGGGGG | 0.991 ± 0.036 |
| TGGGAGTTCA | 0.971 ± 0.01 |
| TGGGATCCGC | 1.03 ± 0.056 |
| TGGGATGGAA | 1.004 ± 0.0031 |
| TGGGATGGAG | 0.976 ± 0.037 |
| TGGGATGTTG | 1 ± 0.052 |
| TGGGATTAAG | 0.987 ± 0.034 |
| TGGGCAAAAA | 1.01 ± 0.011 |
| TGGGCAAAGT | 0.9863 ± 0.0074 |
| TGGGCAAGGA | 1.02 ± 0.028 |
| TGGGCACGGT | 0.969 ± 0.049 |
| TGGGCAGATG | 0.989 ± 0.016 |
| TGGGCCGAGG | 1.12 ± 0.063 |
| TGGGCGAACG | 0.9626 ± 0.0022 |
| TGGGCGAGAA | 0.9685 ± 0.0052 |
| TGGGCGGTGC | 1.93 ± 1.2 |
| TGGGCTAAAT | 0.987 ± 0.027 |
| TGGGGAAAAG | 1.09 ± 0.31 |
| TGGGGAAAGA | 1.01 ± 0.034 |
| TGGGGAAATG | 0.997 ± 0.029 |
| TGGGGAAATT | 1.01 ± 0.022 |
| TGGGGAAGGG | 0.989 ± 0.039 |
| TGGGGAAGTT | 1 ± 0.034 |
| TGGGGAATTC | 1.53 ± 0.86 |
| TGGGGACCCT | 0.991 ± 0.014 |

| Sequence | switch fluorescence ratio |
| --- | --- |
| TGGGGACCGG | 1.01 ± 0.027 |
| TGGGGACCTT | 1 ± 0.0032 |
| TGGGGACGGT | 1.01 ± 0.012 |
| TGGGGAGATA | 1.01 ± 0.018 |
| TGGGGAGGGT | 1.01 ± 0.035 |
| TGGGGATAAC | 0.969 ± 0.034 |
| TGGGGCAAAC | 1.87 ± 0.81 |
| TGGGGCAGGT | 0.997 ± 0.051 |
| TGGGGCATTT | 1 ± 0.036 |
| TGGGGCCCCA | 1.01 ± 0.046 |
| TGGGGCCCGA | 1.02 ± 0.037 |
| TGGGGCCTAA | 1.02 ± 0.013 |
| TGGGGCCTTA | 0.952 ± 0.018 |
| TGGGGCGACT | 0.991 ± 0.021 |
| TGGGGCGGAG | 0.979 ± 0.031 |
| TGGGGCGGCG | 0.976 ± 0.03 |
| TGGGGCGTGC | 1.06 ± 0.065 |
| TGGGGCGTTG | 1.01 ± 0.019 |
| TGGGGGAACT | 0.996 ± 0.019 |
| TGGGGGAAGA | 1.03 ± 0.069 |
| TGGGGGAAGT | 1.01 ± 0.029 |
| TGGGGGAATA | 0.999 ± 0.03 |
| TGGGGGACAG | 1 ± 0.029 |
| TGGGGGACGG | 1 ± 0.035 |
| TGGGGGAGA | 1.04 ± 0.017 |

| Sequence | switch fluorescence ratio |
| --- | --- |
| TGGGGGAGTT | 0.994 ± 0.026 |
| TGGGGGATTA | 0.999 ± 0.021 |
| TGGGGGCAAA | 0.987 ± 0.03 |
| TGGGGGCAAG | 0.987 ± 0.018 |
| TGGGGGCCGG | 1.02 ± 0.039 |
| TGGGGGCGAC | 1 ± 0.057 |
| TGGGGGCGTG | 0.9502 ± 0.00056 |
| TGGGGGGAC | 1.01 ± 0.061 |
| TGGGGGGACC | 1.03 ± 0.05 |
| TGGGGGGCAA | 1.56 ± 1.1 |
| TGGGGGGTCT | 1.02 ± 0.057 |
| TGGGGGGTTG | 1.02 ± 0.049 |
| TGGGGGTCGA | 1.01 ± 0.053 |
| TGGGGGTTAA | 0.981 ± 0.025 |
| TGGGGGTTCC | 1.01 ± 0.025 |
| TGGGGGTTGG | 1 ± 0.024 |
| TGGGGGTTTT | 1 ± 0.032 |
| TGGGGTAAAC | 0.997 ± 0.024 |
| TGGGGTAAGA | 1.02 ± 0.015 |
| TGGGGTAAGT | 0.993 ± 0.032 |
| TGGGGTATGG | 0.978 ± 0.033 |
| TGGGGTATTG | 0.974 ± 0.012 |
| TGGGGTCGGC | 0.987 ± 0.021 |
| TGGGGTCTGA | 0.974 ± 0.017 |
| TGGGGTGAAC | 1 ± 0.025 |
